Target: forh_dicdi forH (UniProt Q54N00)
Sequence (Q54N00 whole entry): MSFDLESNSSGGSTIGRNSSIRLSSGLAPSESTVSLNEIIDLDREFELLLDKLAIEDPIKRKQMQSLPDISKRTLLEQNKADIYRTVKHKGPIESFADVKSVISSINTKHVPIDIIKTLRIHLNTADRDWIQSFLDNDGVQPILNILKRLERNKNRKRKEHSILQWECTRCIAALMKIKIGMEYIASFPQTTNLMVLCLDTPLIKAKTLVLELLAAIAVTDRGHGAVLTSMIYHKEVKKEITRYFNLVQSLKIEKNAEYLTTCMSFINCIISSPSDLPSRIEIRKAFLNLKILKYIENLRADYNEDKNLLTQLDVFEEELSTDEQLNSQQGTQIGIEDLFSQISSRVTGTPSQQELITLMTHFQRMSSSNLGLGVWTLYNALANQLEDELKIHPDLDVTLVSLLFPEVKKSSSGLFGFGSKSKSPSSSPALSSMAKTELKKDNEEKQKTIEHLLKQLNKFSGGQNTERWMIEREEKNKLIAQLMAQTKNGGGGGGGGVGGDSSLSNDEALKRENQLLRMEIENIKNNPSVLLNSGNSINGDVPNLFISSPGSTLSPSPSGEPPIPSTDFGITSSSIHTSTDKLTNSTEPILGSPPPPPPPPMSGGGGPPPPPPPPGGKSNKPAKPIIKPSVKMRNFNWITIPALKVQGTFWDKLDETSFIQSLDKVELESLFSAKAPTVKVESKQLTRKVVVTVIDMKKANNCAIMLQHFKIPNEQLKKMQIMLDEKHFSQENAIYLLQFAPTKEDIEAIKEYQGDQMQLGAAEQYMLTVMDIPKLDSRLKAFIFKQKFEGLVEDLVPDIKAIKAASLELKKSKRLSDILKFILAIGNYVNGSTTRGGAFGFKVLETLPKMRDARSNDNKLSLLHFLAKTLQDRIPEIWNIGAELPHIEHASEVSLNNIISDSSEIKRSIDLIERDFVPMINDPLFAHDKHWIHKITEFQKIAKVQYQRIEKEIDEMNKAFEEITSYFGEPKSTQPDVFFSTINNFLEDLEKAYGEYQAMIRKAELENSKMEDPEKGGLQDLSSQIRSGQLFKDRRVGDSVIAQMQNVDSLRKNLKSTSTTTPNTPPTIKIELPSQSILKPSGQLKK

| effect of a mutation on the interaction | Substance |
| --- | --- |
| decreasing interaction | Rho-related protein rac1A (Dictyostelium discoideum (Slime mold)), P34144 G12V |
| disrupting interaction | Rho-related protein rac1A (Dictyostelium discoideum (Slime mold)), P34144 T17N |
